1 molecule from patent US20240033291A1 (CELLENGENE, published 2024) can be followed below.

What is called EC50 is the concentration giving half of the maximal effect. High values mean a need for much substance, low ones an effect from little substance.

For the test, the target named is human mesothelin protein (MSLN antigen, Acro Biosystems) (human, UniProt Q13421 37-622). Nature of the test: ELISA, coated human mesothelin 1 ug/mL, purified scFv serially diluted, anti-StrepMAB HRP. For orientation: ELISA stands for enzyme-linked immunosorbent assay.
Chain of human mesothelin protein (MSLN antigen, Acro Biosystems) (Q13421 37-630): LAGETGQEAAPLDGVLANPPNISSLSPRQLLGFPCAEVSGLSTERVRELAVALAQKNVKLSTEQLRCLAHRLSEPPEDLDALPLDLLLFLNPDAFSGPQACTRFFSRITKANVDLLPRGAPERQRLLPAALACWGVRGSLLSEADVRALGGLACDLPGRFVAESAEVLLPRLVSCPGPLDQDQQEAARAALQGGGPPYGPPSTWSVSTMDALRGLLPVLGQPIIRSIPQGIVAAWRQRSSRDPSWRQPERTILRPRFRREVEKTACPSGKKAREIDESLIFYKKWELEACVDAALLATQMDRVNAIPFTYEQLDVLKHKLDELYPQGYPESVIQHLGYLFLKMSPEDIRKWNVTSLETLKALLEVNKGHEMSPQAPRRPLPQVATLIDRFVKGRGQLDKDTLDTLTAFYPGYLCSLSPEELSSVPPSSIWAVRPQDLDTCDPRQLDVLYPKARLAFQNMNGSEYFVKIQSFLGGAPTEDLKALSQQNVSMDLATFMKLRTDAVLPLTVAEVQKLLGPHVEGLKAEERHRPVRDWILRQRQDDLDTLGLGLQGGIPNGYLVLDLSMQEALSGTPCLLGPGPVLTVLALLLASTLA

B1: anti-MSLN-scFv antibody MSLN3 (purified scFv) (scFv)
chain: EVQLVESGGGLVQPGGSLRLSCAASGFTFSDYAMSWVRQAPGKGLEWVSAISSSGGTTYYADSVKGRFTISRDNSKNTLYLQMNSLRAEDTAVYYCAKEEEGEWREYFDVWGQGTLVTVSSGGGGSGGGGSGGGGSDIQMTQSPSSLSASVGDRVTITCRASQSISSYLNWYQQKPGKAPKLLIYATSTLQSGVPSRFSGSGSGTDFTLTISSLQPEDFATYYCQQSYTFPYTFGQGTKVEIKAST
Regarding B1, the EC50 was 145 nM.
